The values that follow come from paper PMC5468325.

Experiment [1] deals with RXFP2 S45A (human).
Experiment [2] deals with RXFP2 T44A (human).
Experiment [3] has as its target RXFP2-F51A (human).
In experiment [4] the target is RXFP2-G42A (human).
The target in experiment [5] is Relaxin family peptide receptor 2 (RXFP2), wild type (human) (UniProt Q8WXD0).
The target of experiment [6] is RXFP2 D43A (human). As to the kind of experiment: europium-labelled ligand saturation binding on whole cells (time-resolved fluorescence); HEK293T cells transiently transfected with receptor; increasing concentrations of Eu-INSL3 or Eu-H2 relaxin with or without 1 µM unlabeled ligand, 1 h incubation; one-site binding curves.
Experiment [7] deals with RXFP2 S45A (human). Described as above.
Experiment [8] has as its target RXFP2 T44A (human). The description is as above.
Experiment [9] has as its target RXFP2 W47A (human). The description is as above.
Experiment [10] deals with RXFP2-F51A (human). Described as above.
In experiment [11] the target is RXFP2-G42A (human). Described as above.
The target of experiment [12] is RXFP2-G46A (human). The description is as above.
Experiment [13] deals with Relaxin family peptide receptor 2 (RXFP2), wild type (human) (UniProt Q8WXD0). The description is as above.
The target in experiment [14] is RXFP1 LDLa-linker (human). As to the kind of experiment: NMR titration; RXFP1 LDLa-linker titrated with truncated relaxin (Supp Fig. 5).
Experiment [15] has as its target RXFP2(1-65) P4F (human). As to the kind of experiment: NMR titration; 2D 1H-15N HSQC; increasing concentrations of titrant against 50 µM 15N-labelled RXFP2(1-65) P4F; 25 °C, 50 mM imidazole, 10 mM CaCl2, pH 6.8.

UniProt Q8WXD0, sequence (Q8WXD0 whole entry, the tested form may be a part): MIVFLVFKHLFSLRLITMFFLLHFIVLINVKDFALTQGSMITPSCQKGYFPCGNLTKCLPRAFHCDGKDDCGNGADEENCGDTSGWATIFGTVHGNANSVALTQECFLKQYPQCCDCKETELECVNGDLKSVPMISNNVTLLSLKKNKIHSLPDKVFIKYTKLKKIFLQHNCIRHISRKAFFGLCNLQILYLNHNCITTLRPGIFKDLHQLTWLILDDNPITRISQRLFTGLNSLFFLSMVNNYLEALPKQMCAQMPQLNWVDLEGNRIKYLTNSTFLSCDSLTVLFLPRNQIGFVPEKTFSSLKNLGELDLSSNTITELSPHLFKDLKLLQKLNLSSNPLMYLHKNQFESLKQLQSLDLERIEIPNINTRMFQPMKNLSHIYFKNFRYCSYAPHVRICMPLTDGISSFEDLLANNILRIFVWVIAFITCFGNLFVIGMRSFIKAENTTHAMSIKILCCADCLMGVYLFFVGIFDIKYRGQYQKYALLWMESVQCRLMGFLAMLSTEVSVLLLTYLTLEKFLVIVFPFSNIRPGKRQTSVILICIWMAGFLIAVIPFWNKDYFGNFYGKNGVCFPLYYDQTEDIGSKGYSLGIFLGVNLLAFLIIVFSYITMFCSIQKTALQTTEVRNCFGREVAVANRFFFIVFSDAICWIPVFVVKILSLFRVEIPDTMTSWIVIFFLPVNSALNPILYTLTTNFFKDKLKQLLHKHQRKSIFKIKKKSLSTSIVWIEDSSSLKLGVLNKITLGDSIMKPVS

By Kd is commonly meant a measure of binding affinity in units of concentration. With Europium (Eu3+)-labelled INSL3 (ligand), the Emax: maximal cAMP response (pCRE beta-galactosidase reporter, HEK293T) to unlabelled INSL3 (% maximal RXFP2 activity) in experiment [1] was 92.2; in experiment [2], 98.7; in experiment [3] it was 39.8; in experiment [4], 39.5; in [5], 100. Further, the pEC50 of the cAMP response (pCRE beta-galactosidase reporter, HEK293T) to unlabelled INSL3 in experiment [1] is 10.1; in [2], 10.5; in experiment [3] it was 9.36; in [4], 8.98; in experiment [5] it was 9.99. Moreover, the dissociation constant Kd in [6] came to 1.18 nM; in [7], 1.05 nM; in [8], 2.11 nM; in experiment [9] it was 1.5 nM; in experiment [10] it was 1.55 nM; in [11] it was 1.93 nM. The Kd in experiment [12] is 1.51 nM; in experiment [13] it was 1.07 nM.
Take “Europium (Eu3+)-labelled H2 relaxin (ligand)”: the Emax: maximal cAMP response (pCRE beta-galactosidase reporter, HEK293T) to unlabelled H2 relaxin, max value based on 1 µM activation in [1] was found to be 100%; in experiment [2], 53%; in [3] it was 18.8%; in [4] it was 75.2%; in experiment [5] it was 100%. Also, the pEC50 of the cAMP response (pCRE beta-galactosidase reporter, HEK293T) to unlabelled H2 relaxin in experiment [1] was 9.03; in experiment [2], 8.63; in experiment [3] it was below 6; in experiment [4] it was 7.98; in experiment [5] it was 8.45. In experiment [13], this substance showed a dissociation constant (Kd) of 9.96 nM.
For the substance “B5-29 [B-K9R,A-K9/17R] H2 relaxin (ligand)”, the figures for the dissociation constant (Kd) in experiment [14] and in [15] were 90000 nM and 330000 nM, respectively.
